Holding throughout (settings): protein: extract; tags: yeast-expressed
For data set [1], the target named is T1, RARα1/RXRα heterodimer (yeast) (Homo sapiens/Mus musculus, UniProt P10276;P28700 P10276:1-462,P28700:1-467).
T1 sequence 1: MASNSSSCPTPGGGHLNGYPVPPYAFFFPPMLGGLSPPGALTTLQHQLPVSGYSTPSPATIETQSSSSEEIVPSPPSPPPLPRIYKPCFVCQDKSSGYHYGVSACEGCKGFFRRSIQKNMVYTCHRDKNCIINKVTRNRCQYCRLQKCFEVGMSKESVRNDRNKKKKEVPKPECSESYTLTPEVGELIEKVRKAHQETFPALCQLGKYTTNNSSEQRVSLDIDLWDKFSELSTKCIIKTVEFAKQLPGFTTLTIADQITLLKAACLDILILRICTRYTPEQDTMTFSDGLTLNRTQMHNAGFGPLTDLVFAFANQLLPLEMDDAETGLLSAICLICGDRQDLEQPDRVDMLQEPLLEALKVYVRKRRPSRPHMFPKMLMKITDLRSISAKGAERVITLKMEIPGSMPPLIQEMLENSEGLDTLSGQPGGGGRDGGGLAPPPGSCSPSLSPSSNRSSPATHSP
T1 sequence 2: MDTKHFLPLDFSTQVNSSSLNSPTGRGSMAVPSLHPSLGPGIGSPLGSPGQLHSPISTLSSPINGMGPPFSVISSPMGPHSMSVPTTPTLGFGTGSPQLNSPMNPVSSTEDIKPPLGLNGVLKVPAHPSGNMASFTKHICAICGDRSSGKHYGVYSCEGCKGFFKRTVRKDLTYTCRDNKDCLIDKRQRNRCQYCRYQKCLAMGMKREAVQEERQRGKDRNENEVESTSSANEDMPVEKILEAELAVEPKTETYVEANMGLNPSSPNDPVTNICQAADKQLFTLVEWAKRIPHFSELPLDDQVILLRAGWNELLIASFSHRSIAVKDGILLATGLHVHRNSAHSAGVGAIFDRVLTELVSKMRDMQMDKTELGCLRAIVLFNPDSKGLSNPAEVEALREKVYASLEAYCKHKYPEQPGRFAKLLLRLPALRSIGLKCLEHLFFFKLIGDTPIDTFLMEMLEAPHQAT
Kind of data set: cell_activity; yeast URA3 reporter, 500 nM 9-cis RA. The text has this: (§1) FIG. 13A, Sequences of the response elements used in this study consisting of a direct repeat of a hexamer sequence spaced by one to five base pairs (DR1–DR5), or an inverted repeat of the same hexamer with no spacing (IR0). The hexamer repeats are indicated by arrows and the spacer sequences are presented in lower case. FIG. 13B, Transactivation of URA3 reporter genes containing the different elements by homodimers and heterodimers of RARα and RXRα. The sequences represented in FIG. 13A were cloned into the promoter of a URA3 reporter gene carried on a centromeric plasmid to generate the DRn-URA3 reporter series and IR0-URA3. The reporters were introduced into a yeast strain containing multicopy vectors expressing RARα, RXRα or no receptor. […] "Control" indicates the basal reporter activity in the absence of receptors (using "empty" expression vectors), and the experiments using only one receptor were performed in the presence of the corresponding "empty" vector. The white, hatched and black columns indicate the reporter activity in the presence of no ligand, all-trans RA and 9-cis RA, respectively. The reporter activities are given as units of OMPdecase activity per minute per mg protein, and the values represent the average of at least 2 experiments using at least 2 different clones per experiment. […] Similar amounts of each probe (50, 000 cpm) were used in the assays.

In data set [2] the target is T2, RXRα (yeast) (Mus musculus, UniProt P28700 SEQ:1-467).
T2 sequence: T1 sequence 2
Kind of data set: cell_activity; yeast, 9-cis RA.
Text: as §1

Data set [3] deals with T1, RARα1/RXRα heterodimer (yeast). As to the kind of experiment: cell_activity; yeast, 500 nM 9-cis RA; low absolute activity.
Text: as §1

The target of data set [4] is T2, RXRα (yeast). As to the kind of experiment: cell_activity; yeast, ligand dependent; low absolute activity.
Text: as §1

Data set [5] addresses T1, RARα1/RXRα heterodimer (yeast). Kind of data set: cell_activity; yeast, 500 nM 9-cis RA.
Text: as §1

B1: DR5 (dsDNA)
DNA 1: AGGTCAGCGAGAGGTCA
DNA 2: TGACCTCTCGCTGACCT
On to B1, for which the activity in data set [1] is 60 fold over control.

B2: DR1 (dsDNA)
DNA 1: AGGTCAGAGGTCA
DNA 2: TGACCTCTGACCT
For B2, the activity in the data set with RXRα (yeast) [2] was at least 30 fold; in data set [1] it was 36 fold over control.

B3: IR0 (dsDNA)
DNA 1: AGGTCATGACCT
DNA 2: AGGTCATGACCT
Take B3: the activity in data set [3] stood at 40 fold over control; in the data set with RXRα (yeast) [4] it was 20 fold over control.

B4: DR2 (dsDNA)
DNA 1: AGGTCAGCAGGTCA
DNA 2: TGACCTGCTGACCT
As for B4, the activity in data set [5] is around 10 fold over control.

B5: DR4 (dsDNA)
DNA 1: AGGTCAGCGAAGGTCA
DNA 2: TGACCTTCGCTGACCT
Turning to B5, in data set [5], the activity was around 10 fold over control.

B6: DR3 (dsDNA)
DNA 1: AGGTCAGCGAGGTCA
DNA 2: TGACCTCGCTGACCT
In data set [5], B6 displayed an activity of around 10 fold over control.

For the origin of these results see patent US6635429, “Heterodimeric nuclear receptors proteins, genes encoding same, and usage thereof” (Institut National de la Sante et de la Recherche Medicale).
